Source: PMC4058522 (2014)
Square brackets hold non-standard residues; d marks the D form. Ends that are not written are not given here. pS = N[C@@H](COP(=O)(O)O)C(=O)O

Molecular target: mouse Pih1 PIH domain Lys 153 charge reversal mutant (mouse, UniProt Q9CQJ2 1-200, Charge reversal of a conserved residue Lys 153)
Assay: ITC

Chain of mouse Pih1 PIH domain Lys 153 charge reversal mutant (Q9CQJ2 other isoform, or with tags, fused parts or gaps Charge reversal of a conserved residue Lys 153 | mutant): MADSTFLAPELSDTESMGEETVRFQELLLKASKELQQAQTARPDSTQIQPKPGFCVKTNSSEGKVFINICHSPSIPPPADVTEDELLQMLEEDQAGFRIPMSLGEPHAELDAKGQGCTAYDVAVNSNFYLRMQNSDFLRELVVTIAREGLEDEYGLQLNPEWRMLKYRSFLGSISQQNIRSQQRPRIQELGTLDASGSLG

## QGSD[pS]ELD[pS]DDEF [mouse Tel2 484-496 peptide, bis-phosphorylated pSer 488 and pSer 492 (QGSDpSELDpSDDEF)]
  Kd: 220 nM
